In article doi:10.1101/2020.03.20.999888 (bioRxiv, 2020):

T1: GspM (P. aeruginosa, UniProt P25061 1-174)
T1 sequence: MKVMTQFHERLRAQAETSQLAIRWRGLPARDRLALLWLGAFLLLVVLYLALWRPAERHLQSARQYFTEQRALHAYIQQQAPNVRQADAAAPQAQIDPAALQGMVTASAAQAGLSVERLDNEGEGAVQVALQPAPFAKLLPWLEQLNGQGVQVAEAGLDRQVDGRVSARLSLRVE

B1: GspL (natural protein)
chain: MSGVSALFLPPASTAGADGELAVWWVQDGECRRAPFAQALAEIRAPWRLYLPVEAVTACAVNLPTQKARWLRQSLPFAVEEQLADDVEQMHLALGPALADGRHRVFAVQRTWLAAWLALAEGAGKAPASLHVDADCLPGEGSCLFWLEERWLLGGSGAVRLACGSEDWPVLRDSCPPPQRAFAAQEVAPLEGVEVQALAGNPHVWLSEQPLGTDLAQAEFAARQQSSQWRRWRPLLGLVGLWLVLQWGFTLVQAWQLQREGDRYAAQSAELYRQLFPEDRKLINLRAQFDQHLADSASSGGEGQLLGLLGQAATVIGGEPTVSVEQLDFSAARGDVALQVRAPGFDVLERLRSRLSESGLAVQLGSASRDGSTVSARLVIGG
B2: GspL^peri (domain or fragment)
chain: WQLQREGDRYAAQSAELYRQLFPEDRKLINLRAQFDQHLADSASSGGEGQLLGLLGQAATVIGGEPTVSVEQLDFSAARGDVALQVRAPGFDVLERLRSRLSESGLAVQLGSASRDGSTVSARLVIGG

How the values were obtained:
GspM = molecular target: T1, GspM; experiment: SEC-MALS
SEC-MALS = molecular target: the molecule itself; experiment: SEC-MALS

Row | Binder | stoichiometry N (GspM) | stoichiometry N (SEC-MALS)
1 | B1 | 1 GspL per GspM (printed as 2:2) | 
2 | B2 |  | 2
